pKd: −log10 of the molar value.
Experiments:
HLA-A*02:03 = test: IEDB peptide-MHC binding, purified MHC/competitive/radioactivity; filed as Kd, often an IC50 or EC50 that approximates it; ≥ and ≤ were set here for values at or beyond the usual limits of such assays
HLA-A*02:02 = test: as above
HLA-A*02:06 = test: as above
HLA-A*30:02 = test: as above
HLA-A*03:01 [1] = test: IEDB peptide-MHC binding, purified MHC/direct/fluorescence; filed as Kd, often an IC50 or EC50 that approximates it; ≥ and ≤ were set here for values at or beyond the usual limits of such assays
HLA-B*15:01 = test: as above
HLA-B*58:01 = test: as above
HLA-A*02:01 = test: as above
HLA-A*01:01 = test: as above; settings: source organism: Homo sapiens
HLA-A*31:01 = test: IEDB peptide-MHC binding, purified MHC/competitive/radioactivity; filed as Kd, often an IC50 or EC50 that approximates it; ≥ and ≤ were set here for values at or beyond the usual limits of such assays
HLA-A*33:01 = test: as above
HLA-A*68:01 = test: as above
HLA-A*11:01 = test: as above
HLA-A*03:01 [2] = test: as above
[3] = source organism: Vaccinia virus WR
[4] = source organism: Dengue virus 2 Jamaica/1409/1983
[5] = source organism: Dengue virus 3 Martinique/1243/1999
[6] = source organism: Mammarenavirus whitewaterense
[7] = source organism: SARS coronavirus Tor2
[8] = source organism: Dengue virus 1 Brazil/97-11/1997
[9] = source organism: Mammarenavirus brazilense
[10] = source organism: Lymphocytic choriomeningitis virus (strain WE)
[11] = source organism: Lymphocytic choriomeningitis virus (strain Armstrong)

Sequence	pKd (HLA-A*02:03; [3])	pKd (HLA-A*02:02; [3])	pKd (HLA-A*02:06; [3])	other results
SIAMLKSKNI	7.26	5.96	6.59	–
KVSCTILAAV	–	–	–	pKd (HLA-A*02:03; [4]): 7.26; pKd (HLA-A*02:06; [4]): 7.90
KVAAEGINY	–	–	–	pKd (HLA-A*30:02; source organism: Dengue virus 2 Peru/IQT2913/1996): 6.96
PTNDIPSLFI	≤ 4.21	4.96	4.83	–
GIKNLKSLL	5.58	5.67	≤ 4.21	–
PLSINVSGV	7.34	5.95	4.75	–
GAAITLVVI	5.48	5.19	5.53	–
RVAAEGINY	–	–	–	pKd (HLA-A*30:02; [4]): 7.32
KVEKYLPEV	6.77	5.98	6.94	–
ITLILSNKLL	5.33	5.96	5.41	–
GLMILLTGGA	–	–	–	pKd (HLA-A*02:03; [5]): 7.64
IMETIDPVYI	6.62	7.54	6.46	–
ALYSPPLISI	6.82	8.85	6.79	–
TIAVSVYGAI	6.24	5.81	5.27	–
VLQQNNSFII	5.99	6.18	5.02	–
GLVDVCFWS	–	–	–	pKd (HLA-A*02:03; [6]): 5.97; pKd (HLA-A*02:02; [6]): 6.94; pKd (HLA-A*02:06; [6]): 6.27
WLLWPVTLA	–	–	–	pKd (HLA-A*02:03; [7]): 8.92; pKd (HLA-A*02:02; [7]): 7.93; pKd (HLA-A*02:06; [7]): 7.76
RQLTSNVDV	5.01	≤ 4.29	6.77	–
DVSVSVGTGI	5.23	4.75	≤ 4.66	–
TLIAMDLGEL	–	–	–	pKd (HLA-A*02:03; [8]): 7.90
GLSASDVDM	5.45	6.30	4.86	–
IVSLCPTKKL	7.53	8.02	≤ 4.55	–
IISLFYTFAI	7.36	6.97	6.84	–
ICFWSTLFFT	–	–	–	pKd (HLA-A*02:03; [9]): ≤ 4.45; pKd (HLA-A*02:02; [9]): ≤ 4.48; pKd (HLA-A*02:06; [9]): ≤ 4.46

Sequence	pKd (HLA-A*02:03; [3])	pKd (HLA-A*02:02; [3])	pKd (HLA-A*02:06; [3])	other results
RTIDAINKCV	6.48	4.97	6.47	–
ALLFLMSFT	–	–	–	pKd (HLA-A*02:03; [7]): 5.70; pKd (HLA-A*02:02; [7]): 5.55; pKd (HLA-A*02:06; [7]): 6.89
LLQAGASVK	–	–	–	pKd (HLA-A*03:01 [1]; source organism: Vibrio parahaemolyticus RIMD 2210633): 7.10
SLIYYQNEVT	6.22	7.11	5.37	–
VVISVIFYFI	6.12	6.62	6.27	–
RILSEKRKDT	5.38	6.15	5.16	–
ILATLNTLI	9.64	9.38	7.39	–
YAVLSEYET	≤ 4.45	5.75	5.88	–
MQLKIDKLT	≤ 4.22	5.12	≤ 4.22	–
FQPHQLWTT	–	–	–	pKd (HLA-A*02:06; [8]): 8.22
GVPLLALGCY	–	–	–	pKd (HLA-A*30:02; [8]): 7.42
LLWYRRGTF	–	–	–	pKd (HLA-B*15:01; source organism: Mycobacterium tuberculosis C): 6.44
KLVETGFVI	5.97	4.88	6.70	–
GLIVILFIM	5.86	4.87	5.28	–
AIDRQVSVKL	4.88	5.10	≤ 4.49	–
TTTYKAFDW	–	–	–	pKd (HLA-B*58:01; source organism: Mycobacterium tuberculosis variant bovis): 7.15
IAIFNNRNL	4.98	5.03	4.87	–
KVYLSTFNM	6.10	6.32	6.58	–
FSTSAYLISI	–	–	–	pKd (HLA-A*02:03; [10]): 7.87; pKd (HLA-A*02:02; [10]): 9.17; pKd (HLA-A*02:06; [10]): 8.46
MIIGEPIIVA	6.95	7.38	6.91	–
TIAGGVCYYL	7.46	10.44	8.40	–
CQCTVQEFI	5.32	5.69	5.95	–
KLLIVLTCI	–	–	–	pKd (HLA-A*02:03; [7]): 5.71; pKd (HLA-A*02:02; [7]): 6.59; pKd (HLA-A*02:06; [7]): 6.35
IADIRDKYM	6.64	7.20	≤ 4.24	–

Sequence	pKd (HLA-A*02:03; [3])	pKd (HLA-A*02:02; [3])	pKd (HLA-A*02:06; [3])	other results
EMKYALINL	7.20	5.51	≤ 4.11	–
GVKGFSFKY	–	–	–	pKd (HLA-B*15:01; source organism: Influenza A virus (A/eka/Thailand/EkA1NRC/2004(H5N1))): ≤ 4.70
VVIVENDNV	≤ 4.42	4.88	5.37	–
SMTCIAVGMV	–	–	–	pKd (HLA-A*02:03; [8]): 7.67
KVASEGIKY	–	–	–	pKd (HLA-A*30:02; [5]): 5.76
ILAVVSVSPL	–	–	–	pKd (HLA-A*02:03; source organism: Dengue virus 2 16681-PDK53): 7.40
RTMPNESRV	7.00	6.85	6.81	–
DLLFNEKLKV	6.50	6.45	5.69	–
KIVQLPKRGV	7.29	5.39	5.65	–
GTKGKLYIAL	5.11	5.04	≤ 4.43	–
GGTPAVEEW	–	–	–	pKd (HLA-B*58:01; source organism: Mycobacterium tuberculosis): 6.70
TILATLNTL	7.47	6.62	7.59	–
KLKSMEAEMI	–	–	–	pKd (HLA-A*02:06; source organism: Homo sapiens): 5.11
DLLNVTYNI	6.71	6.53	5.89	–
KVIKLVKSL	7.37	6.24	6.59	–
NMLDDFSAGA	6.79	6.51	6.62	–
LNISGYNYSL	–	–	–	pKd (HLA-A*02:03; [9]): ≤ 4.31; pKd (HLA-A*02:02; [9]): 7.11; pKd (HLA-A*02:06; [9]): 5.96
GARVIWMDA	5.04	5.34	5.67	–
CVDHPFIYV	5.85	6.52	6.83	–
CTEETKRNIA	≤ 4.30	≤ 4.15	≤ 4.16	–
IWYMWLGARY	–	–	–	pKd (HLA-A*30:02; [5]): 8.49
FIVYGRSNA	6.43	5.22	5.06	–
YVSSSYKDI	5.92	5.30	4.78	–
ATQFNFNGHT	4.94	≤ 4.54	≤ 4.58	–

Sequence	pKd (HLA-A*02:03; [3])	pKd (HLA-A*02:02; [3])	pKd (HLA-A*02:06; [3])	other results
PVLEKKVCAI	5.92	6.27	5.98	–
VMDKNHAIFT	4.94	4.73	≤ 4.16	–
WLKDSAIMVA	5.88	7.83	5.32	–
LVFLWLLWPV	–	–	–	pKd (HLA-A*02:03; [7]): 8.71; pKd (HLA-A*02:02; [7]): 9.03; pKd (HLA-A*02:06; [7]): 9.25
ALLSCIRNA	8.21	6.92	7.11	–
DVERLQMAGV	6.98	6.67	6.11	–
YLDFGGPEG	–	–	–	pKd (HLA-A*02:01; source organism: Homo sapiens): 5.82; pKd (HLA-A*01:01): 5.61
RMIAISAKV	–	–	–	pKd (HLA-A*02:01; source organism: Camelpox virus M-96): 8.47
ALGMMVLKIV	–	–	–	pKd (HLA-A*02:03; [4]): 7.25
ESIEDKFDY	–	–	–	pKd (HLA-A*31:01; [3]): ≤ 4.46; pKd (HLA-A*33:01; [3]): ≤ 4.11; pKd (HLA-A*68:01; [3]): 5.76; pKd (HLA-A*11:01; [3]): 4.95; pKd (HLA-A*03:01 [2]; [3]): 5.12
SSMTIREFPR	–	–	–	pKd (HLA-A*31:01; [3]): 9.00; pKd (HLA-A*33:01; [3]): 7.76; pKd (HLA-A*68:01; [3]): 9.32; pKd (HLA-A*11:01; [3]): 8.26; pKd (HLA-A*03:01 [2]; [3]): 5.00
AFHTPAFDK	–	–	–	pKd (HLA-A*31:01; [7]): 5.25; pKd (HLA-A*33:01; [7]): ≤ 4.48; pKd (HLA-A*68:01; [7]): 5.07; pKd (HLA-A*11:01; [7]): 6.02; pKd (HLA-A*03:01 [2]; [7]): 5.84
ILDGENCTL	–	–	–	pKd (HLA-A*02:01; source organism: Influenza A virus (A/Jiangsu/38/2004(H3N2))): 7.42
GTKGKLYIA	7.25	5.76	5.60	–
GQIDNFSLGV	–	–	–	pKd (HLA-A*02:06; [4]): 8.25
FLPQIGGEAI	7.87	9.00	8.00	–
IMASLVLAR	–	–	–	pKd (HLA-A*31:01; [7]): 7.74; pKd (HLA-A*33:01; [7]): 6.25; pKd (HLA-A*68:01; [7]): 7.55; pKd (HLA-A*11:01; [7]): 6.98; pKd (HLA-A*03:01 [2]; [7]): 7.97
TLNRCALLR	–	–	–	pKd (HLA-A*03:01 [1]; source organism: Vibrio cholerae): 5.65
SFIVPEFAK	–	–	–	pKd (HLA-A*31:01; [3]): 7.56; pKd (HLA-A*33:01; [3]): 5.08; pKd (HLA-A*68:01; [3]): 5.95; pKd (HLA-A*11:01; [3]): 6.99; pKd (HLA-A*03:01 [2]; [3]): ≤ 4.36
SNSEDLLKAV	–	–	–	pKd (HLA-A*02:03; [11]): 4.82; pKd (HLA-A*02:02; [11]): 4.75; pKd (HLA-A*02:06; [11]): ≤ 5.00
LVAEHRFENM	6.34	5.69	6.14	–
